Laboratory results: patent US20240084042A1 (Genentech, published 2024)
Where two headings read alike, the source gives them in different places.

Key:
Assay in all cases: SPR, one-armed monovalent antibody
[1] = target: T1, human KLK5 (human, UniProt Q9Y337 67-293)
T1 construct: also called huKLK5; KLK5 AMC
T1 sequence: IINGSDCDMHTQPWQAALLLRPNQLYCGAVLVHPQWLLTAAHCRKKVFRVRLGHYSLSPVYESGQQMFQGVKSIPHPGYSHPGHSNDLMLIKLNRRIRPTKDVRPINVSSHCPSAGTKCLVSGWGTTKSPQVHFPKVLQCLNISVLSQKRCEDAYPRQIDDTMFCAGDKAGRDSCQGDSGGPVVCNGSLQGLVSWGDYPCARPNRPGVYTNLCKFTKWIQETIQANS

[2] = target: T2, cynomolgus monkey KLK5 (cynomolgus monkey, UniProt Q9Y337 67-293 (human entry))
T2 construct: also called cyno KLK5
T2 chain: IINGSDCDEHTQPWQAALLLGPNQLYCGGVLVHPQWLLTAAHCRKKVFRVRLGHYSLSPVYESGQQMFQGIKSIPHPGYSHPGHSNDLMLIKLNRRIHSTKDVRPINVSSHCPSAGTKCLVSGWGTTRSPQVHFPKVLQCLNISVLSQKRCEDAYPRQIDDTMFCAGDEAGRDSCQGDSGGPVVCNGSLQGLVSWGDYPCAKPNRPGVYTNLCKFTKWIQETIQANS

[3] = target: T1, human KLK5; remark: listed apart in the source
[4] = target: T2, cynomolgus monkey KLK5

B1: OA.hu.10C5.L5H28.WT (antibody, V domains shown)
VH: EVQLVESGGGLVQPGGSLRLSCAASGFSLSSYGVTWVRQAPGKGLEWIGYITSNYGVSYYASWAKSRSTISRDTSKNTVYLQMGSLRAEDMAVYYCARENPDYGYAYDAWGQGTTVTVSS
VL: AIRMTQSPSSFSASTGDRVTITCQASESISNELSWYQQKPGKAPKLLIYYASTLASGVPSRFSGSGSGTDFTLTISSLQPEDFATYYCAQGFGSSGVENVFGGGTKVEIK
notes: One-armed (OA) monovalent anti-KLK5 antibody with a human IgG1 Fc, without Q38E/Q39K; constant regions and dummy Fc chain not specified
[1]
  Kd: 0.102 nM
  koff: 0.00128 s⁻¹
  kon: 1.25e+07 M⁻¹ s⁻¹
[2]
  Kd: 0.371 nM
  koff: 0.00424 s⁻¹
  kon: 1.14e+07 M⁻¹ s⁻¹

B2: OA.hu.10C5.N53V.S34K (antibody, V domains shown)
VH: EVQLVESGGGLVQPGGSLRLSCAASGFSLSSYGVTWVRKAPGKGLEWIGYITSVYGVSYYASWAKSRSTISRDTSKNTVYLQMGSLRAEDMAVYYCARENPDYGYAYDAWGQGTTVTVSS
VL: AIRMTQSPSSFSASTGDRVTITCQASESISNELKWYQEKPGKAPKLLIYYASTLASGVPSRFSGSGSGTDFTLTISSLQPEDFATYYCAQGFGSSGVENVFGGGTKVEIK
notes: One-armed (OA) monovalent anti-KLK5 antibody with a human IgG1 Fc, with Q38E/Q39K; constant regions and dummy Fc chain not specified
[1]
  Kd: 0.00289 nM
  koff: 9.88e-06 s⁻¹
  kon: 3.42e+06 M⁻¹ s⁻¹
[2]
  Kd: 0.0162 nM
  koff: 8.88e-05 s⁻¹
  kon: 5.48e+06 M⁻¹ s⁻¹

B3: OA.hu.10C5.N53V (antibody, V domains shown)
VH: EVQLVESGGGLVQPGGSLRLSCAASGFSLSSYGVTWVRQAPGKGLEWIGYITSVYGVSYYASWAKSRSTISRDTSKNTVYLQMGSLRAEDMAVYYCARENPDYGYAYDAWGQGTTVTVSS
VL: AIRMTQSPSSFSASTGDRVTITCQASESISNELSWYQQKPGKAPKLLIYYASTLASGVPSRFSGSGSGTDFTLTISSLQPEDFATYYCAQGFGSSGVENVFGGGTKVEIK
notes: as for B1
[1]
  Kd: 0.0135 nM
  koff: 9.23e-05 s⁻¹
  kon: 6.84e+06 M⁻¹ s⁻¹
[2]
  Kd: 0.0355 nM
  koff: 0.00052 s⁻¹
  kon: 1.46e+07 M⁻¹ s⁻¹

B4: OA.hu.10C5.N53V.F92Y (antibody, V domains shown)
VH: EVQLVESGGGLVQPGGSLRLSCAASGFSLSSYGVTWVRKAPGKGLEWIGYITSVYGVSYYASWAKSRSTISRDTSKNTVYLQMGSLRAEDMAVYYCARENPDYGYAYDAWGQGTTVTVSS
VL: AIRMTQSPSSFSASTGDRVTITCQASESISNELSWYQEKPGKAPKLLIYYASTLASGVPSRFSGSGSGTDFTLTISSLQPEDFATYYCAQGYGSSGVENVFGGGTKVEIK
notes: as for B2
[1]
  Kd: 0.00382 nM
  koff: 2.45e-05 s⁻¹
  kon: 6.41e+06 M⁻¹ s⁻¹
[2]
  Kd: 0.00885 nM
  koff: 0.000161 s⁻¹
  kon: 1.82e+07 M⁻¹ s⁻¹

B5: OA.hu.10C5.N53V.F92Y.S95F (antibody, V domains shown)
VH: EVQLVESGGGLVQPGGSLRLSCAASGFSLSSYGVTWVRKAPGKGLEWIGYITSVYGVSYYASWAKSRSTISRDTSKNTVYLQMGSLRAEDMAVYYCARENPDYGYAYDAWGQGTTVTVSS
VL: AIRMTQSPSSFSASTGDRVTITCQASESISNELSWYQEKPGKAPKLLIYYASTLASGVPSRFSGSGSGTDFTLTISSLQPEDFATYYCAQGYGSFGVENVFGGGTKVEIK
notes: as for B2
[1]
  Kd: 0.000853 nM
  koff: 8.65e-06 s⁻¹
  kon: 1.01e+07 M⁻¹ s⁻¹
[2]
  Kd: 0.00376 nM
  koff: 5.72e-05 s⁻¹
  kon: 1.52e+07 M⁻¹ s⁻¹

B6: OA.hu.9H5.H14L4.G54A.G98Q.H89V.S95Y (antibody, V domains shown)
VH: EVQLVESGGGLIQPGGSLRLSCAASGFSLSSYGVSWVRKAPGKGLEYVGFIGSAGFAYYASWAKSRFTISRDNSKNTLYLQMNSLRAEDTAVYYCARDDVQGGKSLDIWGQGTLVTVSS
VL: DIQMTQSPSSLSASVGDRVTITCQASQSISSYLSWYQEKPGKAPKLLIYSASTLASGVPSRFSGSGSGTDFTLTISSLQPEDFATYYCVQDYTSYNVDNTFGGGTKVEIK
notes: as for B2
[3]
  Kd: 0.0121 nM
  koff: 2.39e-05 s⁻¹
  kon: 1.98e+06 M⁻¹ s⁻¹
[4]
  Kd: 0.0146 nM
  koff: 5.75e-05 s⁻¹
  kon: 3.95e+06 M⁻¹ s⁻¹

B7: OA.hu.9H5.H14L4.G54A.S95Y (antibody, V domains shown)
VH: EVQLVESGGGLIQPGGSLRLSCAASGFSLSSYGVSWVRKAPGKGLEYVGFIGSAGFAYYASWAKSRFTISRDNSKNTLYLQMNSLRAEDTAVYYCARDDVGGGKSLDIWGQGTLVTVSS
VL: DIQMTQSPSSLSASVGDRVTITCQASQSISSYLSWYQEKPGKAPKLLIYSASTLASGVPSRFSGSGSGTDFTLTISSLQPEDFATYYCHQDYTSYNVDNTFGGGTKVEIK
notes: as for B2
[3]
  Kd: 0.0162 nM
  koff: 1.6e-05 s⁻¹
  kon: 992000 M⁻¹ s⁻¹
[4]
  Kd: 0.0175 nM
  koff: 8.44e-05 s⁻¹
  kon: 4.82e+06 M⁻¹ s⁻¹
